In publication PMC9482650, “Quantitative fragmentomics allow affinity mapping of interactomes” (Nature Communications, 2022):

T1: APBA3_1, O96018
T1 sequence (O96018 389-490, limits assumed, looked up): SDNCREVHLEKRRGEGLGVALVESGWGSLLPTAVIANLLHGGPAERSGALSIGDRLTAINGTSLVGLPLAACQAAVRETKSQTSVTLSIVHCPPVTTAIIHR

T2: DFNB31_3, Q9P202
T2 sequence (Q9P202 811-907, limits assumed, looked up): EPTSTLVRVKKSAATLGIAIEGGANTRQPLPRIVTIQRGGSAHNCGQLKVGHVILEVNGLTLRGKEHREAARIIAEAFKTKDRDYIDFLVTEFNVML

T3: LIN7C, Q9NUP9
T3 sequence (Q9NUP9 88-185, limits assumed, looked up): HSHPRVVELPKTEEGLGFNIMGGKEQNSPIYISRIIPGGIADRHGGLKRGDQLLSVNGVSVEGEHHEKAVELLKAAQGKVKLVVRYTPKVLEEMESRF

T4: MPDZ_10, O75970
T4 sequence (O75970 1624-1722, limits assumed, looked up): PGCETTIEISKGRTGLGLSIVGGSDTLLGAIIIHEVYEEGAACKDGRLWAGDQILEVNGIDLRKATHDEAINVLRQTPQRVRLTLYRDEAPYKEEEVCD

T5: MPDZ_12, O75970
T5 sequence (O75970 1857-1958, limits assumed, looked up): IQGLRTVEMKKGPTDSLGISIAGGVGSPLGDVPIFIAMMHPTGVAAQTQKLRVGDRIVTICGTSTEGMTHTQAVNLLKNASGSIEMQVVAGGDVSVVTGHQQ

T6: NHERF3_1, Q5T2W1
T6 sequence (Q5T2W1 4-100, limits assumed, looked up): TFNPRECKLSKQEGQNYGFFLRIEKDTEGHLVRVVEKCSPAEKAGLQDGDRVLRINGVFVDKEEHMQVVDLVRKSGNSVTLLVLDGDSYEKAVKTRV

T7: PARD3B_1, Q8TEW8
T7 sequence (Q8TEW8 196-299, limits assumed, looked up): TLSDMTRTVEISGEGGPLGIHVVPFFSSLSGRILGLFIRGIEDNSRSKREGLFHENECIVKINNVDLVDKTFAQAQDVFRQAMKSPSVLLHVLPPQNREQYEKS

T8: RAPGEF6, Q8TEU7
T8 sequence (Q8TEU7 525-625, limits assumed, looked up): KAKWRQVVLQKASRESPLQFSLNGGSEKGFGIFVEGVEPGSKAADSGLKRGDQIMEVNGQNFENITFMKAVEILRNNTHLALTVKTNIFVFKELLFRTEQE

T9: SNTA1, Q13424
T9 sequence (Q13424 82-180, limits assumed, looked up): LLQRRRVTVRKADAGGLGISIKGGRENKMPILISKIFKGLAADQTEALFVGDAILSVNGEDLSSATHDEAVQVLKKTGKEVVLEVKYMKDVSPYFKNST

T10: SNTG1, Q9NSN8
T10 sequence (Q9NSN8 52-150, limits assumed, looked up): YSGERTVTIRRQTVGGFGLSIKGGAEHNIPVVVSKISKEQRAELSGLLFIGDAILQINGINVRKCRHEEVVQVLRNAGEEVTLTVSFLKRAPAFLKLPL


Key:
Test in all cases: holdup assay
Design in all cases: key: below the threshold = too weak to quantify, mostly under pKd 3.1 to 4
Conditions in all cases: plain residues with an end cap or a label only (N-terminal biotin on a linker: ado-ado)
APBA3_1, O96018 = biological target: T1, APBA3_1, O96018
CASK, O14936 = biological target: CASK, O14936
Chain of CASK, O14936 (O14936 487-570): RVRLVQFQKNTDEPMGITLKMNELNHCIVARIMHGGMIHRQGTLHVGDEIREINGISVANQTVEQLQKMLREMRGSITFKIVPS

DFNB31_3, Q9P202 = biological target: T2, DFNB31_3, Q9P202
DLG2_2, Q15700 = biological target: DLG2_2, Q15700
DLG2_3, Q15700 = biological target: DLG2_3, Q15700
DLG5_1, Q8TDM6 = biological target: DLG5_1, Q8TDM6
Chain of DLG5_1, Q8TDM6 (Q8TDM6 617-713): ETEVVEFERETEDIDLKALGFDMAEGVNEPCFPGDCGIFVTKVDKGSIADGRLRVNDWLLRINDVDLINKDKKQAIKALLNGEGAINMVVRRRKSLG

FRMPD2_2, Q68DX3 = biological target: FRMPD2_2, Q68DX3
Chain of FRMPD2_2, Q68DX3 (Q68DX3 944-1038): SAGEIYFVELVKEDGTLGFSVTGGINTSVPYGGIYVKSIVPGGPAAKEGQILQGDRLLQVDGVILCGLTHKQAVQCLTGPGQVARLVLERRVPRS

FRMPD4, Q14CM0 = biological target: FRMPD4, Q14CM0
Chain of FRMPD4, Q14CM0 (Q14CM0 67-160): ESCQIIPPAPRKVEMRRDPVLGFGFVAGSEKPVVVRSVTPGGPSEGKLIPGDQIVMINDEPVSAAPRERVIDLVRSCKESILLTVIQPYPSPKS

GIPC2, Q8TF65 = biological target: GIPC2, Q8TF65
Chain of GIPC2, Q8TF65 (Q8TF65 112-203): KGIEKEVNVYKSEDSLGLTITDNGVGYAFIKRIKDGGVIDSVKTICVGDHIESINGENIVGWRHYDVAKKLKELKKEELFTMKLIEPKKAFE

GOPC, Q9HD26 = biological target: GOPC, Q9HD26
GRID2IP_1, A4D2P6 = biological target: GRID2IP_1, A4D2P6
Chain of GRID2IP_1, A4D2P6 (A4D2P6 1-87): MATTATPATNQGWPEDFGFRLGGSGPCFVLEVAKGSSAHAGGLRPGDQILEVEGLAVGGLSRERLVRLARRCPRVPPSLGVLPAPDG

GRIP2_6, Q9C0E4 = biological target: GRIP2_6, Q9C0E4
Chain of GRIP2_6, Q9C0E4 (Q9C0E4 648-740): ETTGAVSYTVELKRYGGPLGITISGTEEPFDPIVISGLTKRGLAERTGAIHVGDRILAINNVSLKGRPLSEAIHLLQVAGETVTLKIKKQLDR

IL16_4, Q14005 = biological target: IL16_4, Q14005
Chain of IL16_4, Q14005 (Q14005 1229-1329): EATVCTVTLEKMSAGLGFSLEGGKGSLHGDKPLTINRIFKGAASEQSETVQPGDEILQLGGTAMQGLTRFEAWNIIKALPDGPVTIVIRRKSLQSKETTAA

Inadl_1, Q8NI35 = biological target: Inadl_1, Q8NI35
Chain of Inadl_1, Q8NI35 (Q8NI35 113-229): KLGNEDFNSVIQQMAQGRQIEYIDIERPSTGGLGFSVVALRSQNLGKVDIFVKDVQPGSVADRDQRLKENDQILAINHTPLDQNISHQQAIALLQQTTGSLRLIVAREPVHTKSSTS

LDB3, O75112 = biological target: LDB3, O75112
Chain of LDB3, O75112 (O75112 1-94): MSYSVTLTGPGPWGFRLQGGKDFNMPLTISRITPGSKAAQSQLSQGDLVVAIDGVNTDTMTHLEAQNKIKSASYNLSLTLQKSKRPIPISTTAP

LIN7C, Q9NUP9 = biological target: T3, LIN7C, Q9NUP9
MAGI2_2, Q86UL8 = biological target: MAGI2_2, Q86UL8
Chain of MAGI2_2, Q86UL8 (Q86UL8 410-522): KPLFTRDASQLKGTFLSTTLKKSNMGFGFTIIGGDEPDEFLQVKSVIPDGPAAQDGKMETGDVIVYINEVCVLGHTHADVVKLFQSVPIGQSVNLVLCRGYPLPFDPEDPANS

MAGI2_3, Q86UL8 = biological target: MAGI2_3, Q86UL8
Chain of MAGI2_3, Q86UL8 (Q86UL8 600-682): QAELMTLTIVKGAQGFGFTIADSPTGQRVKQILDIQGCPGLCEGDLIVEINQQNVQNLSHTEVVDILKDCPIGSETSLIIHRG

MPDZ_10, O75970 = biological target: T4, MPDZ_10, O75970
MPDZ_12, O75970 = biological target: T5, MPDZ_12, O75970
NHERF2_2, Q15599 = biological target: NHERF2_2, Q15599
Chain of NHERF2_2, Q15599 (Q15599 142-238): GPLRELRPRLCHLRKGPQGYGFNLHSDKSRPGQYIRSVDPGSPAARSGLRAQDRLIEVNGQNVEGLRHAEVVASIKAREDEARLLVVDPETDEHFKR

NHERF3_1, Q5T2W1 = biological target: T6, NHERF3_1, Q5T2W1
PARD3B_1, Q8TEW8 = biological target: T7, PARD3B_1, Q8TEW8
RAPGEF6, Q8TEU7 = biological target: T8, RAPGEF6, Q8TEU7
SCRIB_1, Q14160 = biological target: SCRIB_1, Q14160
Chain of SCRIB_1, Q14160 (Q14160 718-814): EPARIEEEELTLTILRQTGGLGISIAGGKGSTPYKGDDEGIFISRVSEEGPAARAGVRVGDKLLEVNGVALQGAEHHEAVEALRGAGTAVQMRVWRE

SNTA1, Q13424 = biological target: T9, SNTA1, Q13424
SNTG1, Q9NSN8 = biological target: T10, SNTG1, Q9NSN8
TJP1_3, Q07157 = biological target: TJP1_3, Q07157
Chain of TJP1_3, Q07157 (Q07157 416-512): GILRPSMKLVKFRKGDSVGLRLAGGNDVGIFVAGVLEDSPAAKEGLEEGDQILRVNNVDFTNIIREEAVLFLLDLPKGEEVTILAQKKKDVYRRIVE

Binder	pKd (APBA3_1, O96018)	pKd (CASK, O14936)	pKd (DFNB31_3, Q9P202)	pKd (DLG2_2, Q15700)	pKd (DLG2_3, Q15700)	pKd (DLG5_1, Q8TDM6)	pKd (FRMPD2_2, Q68DX3)	pKd (FRMPD4, Q14CM0)	pKd (GIPC2, Q8TF65)	pKd (GOPC, Q9HD26)	pKd (GRID2IP_1, A4D2P6)	pKd (GRIP2_6, Q9C0E4)	pKd (IL16_4, Q14005)	pKd (Inadl_1, Q8NI35)	pKd (LDB3, O75112)	pKd (LIN7C, Q9NUP9)	pKd (MAGI2_2, Q86UL8)	pKd (MAGI2_3, Q86UL8)	pKd (MPDZ_10, O75970)	pKd (MPDZ_12, O75970)	other results
RFQQRMQTHV [KIRREL1, Q96J84]	below the threshold	below the threshold	3.62	4.44	4.48	below the threshold	below the threshold	below the threshold	below the threshold	3.91	below the threshold	3.54	below the threshold	below the threshold	below the threshold	3.69	5.49	3.75	below the threshold	below the threshold	pKd (NHERF2_2, Q15599): 3.57; pKd (NHERF3_1, Q5T2W1): 5.03; pKd (PARD3B_1, Q8TEW8): below the threshold; pKd (RAPGEF6, Q8TEU7): below the threshold; pKd (SCRIB_1, Q14160): 4.25; pKd (SNTA1, Q13424): below the threshold; pKd (SNTG1, Q9NSN8): below the threshold; pKd (TJP1_3, Q07157): below the threshold
REEPDHSTEV [CCRL2, O00421]	below the threshold	below the threshold	below the threshold	4.5	below the threshold	3.63	4.16	3.47	4.01	3.56	below the threshold	3.54	below the threshold	below the threshold	below the threshold	below the threshold	below the threshold	below the threshold	3.7	below the threshold	pKd (NHERF2_2, Q15599): 3.65; pKd (NHERF3_1, Q5T2W1): 4.57; pKd (PARD3B_1, Q8TEW8): below the threshold; pKd (RAPGEF6, Q8TEU7): below the threshold; pKd (SCRIB_1, Q14160): 4.03; pKd (SNTA1, Q13424): 4.45; pKd (SNTG1, Q9NSN8): 4.36; pKd (TJP1_3, Q07157): 3.48
QSYPSKHDYV [CLDN18, P56856]	below the threshold	below the threshold	below the threshold	below the threshold	below the threshold	below the threshold	below the threshold	3.57	below the threshold	below the threshold	below the threshold	below the threshold	3.78	below the threshold	below the threshold	below the threshold	below the threshold	3.62	3.64	below the threshold	pKd (NHERF2_2, Q15599): below the threshold; pKd (NHERF3_1, Q5T2W1): 4.26; pKd (PARD3B_1, Q8TEW8): below the threshold; pKd (RAPGEF6, Q8TEU7): below the threshold; pKd (SCRIB_1, Q14160): below the threshold; pKd (SNTA1, Q13424): 3.58; pKd (SNTG1, Q9NSN8): below the threshold; pKd (TJP1_3, Q07157): below the threshold

Now from value to binder, other results behind:

pKd (APBA3_1, O96018)	pKd (CASK, O14936)	pKd (DFNB31_3, Q9P202)	pKd (DLG2_2, Q15700)	pKd (DLG2_3, Q15700)	pKd (DLG5_1, Q8TDM6)	pKd (FRMPD2_2, Q68DX3)	pKd (FRMPD4, Q14CM0)	pKd (GIPC2, Q8TF65)	pKd (GOPC, Q9HD26)	pKd (GRID2IP_1, A4D2P6)	pKd (GRIP2_6, Q9C0E4)	pKd (IL16_4, Q14005)	pKd (Inadl_1, Q8NI35)	pKd (LDB3, O75112)	pKd (LIN7C, Q9NUP9)	pKd (MAGI2_2, Q86UL8)	pKd (MAGI2_3, Q86UL8)	pKd (MPDZ_10, O75970)	pKd (MPDZ_12, O75970)	Binder	other results
below the threshold	below the threshold	below the threshold	below the threshold	below the threshold	below the threshold	below the threshold	4.12	below the threshold	below the threshold	below the threshold	below the threshold	3.5	below the threshold	below the threshold	below the threshold	below the threshold	below the threshold	below the threshold	below the threshold	EPQYQPGENL [SRC, P12931]	pKd (NHERF2_2, Q15599): 3.77; pKd (NHERF3_1, Q5T2W1): 3.82; pKd (PARD3B_1, Q8TEW8): 3.91; pKd (RAPGEF6, Q8TEU7): below the threshold; pKd (SCRIB_1, Q14160): 3.49; pKd (SNTA1, Q13424): below the threshold; pKd (SNTG1, Q9NSN8): below the threshold; pKd (TJP1_3, Q07157): below the threshold
below the threshold	below the threshold	below the threshold	3.86	below the threshold	below the threshold	4.36	below the threshold	below the threshold	4.13	below the threshold	below the threshold	below the threshold	below the threshold	below the threshold	below the threshold	3.5	below the threshold	below the threshold	4.37	APIAGFSSFV [SDK2, Q58EX2]	pKd (NHERF2_2, Q15599): 3.98; pKd (NHERF3_1, Q5T2W1): 5.08; pKd (PARD3B_1, Q8TEW8): 3.75; pKd (RAPGEF6, Q8TEU7): below the threshold; pKd (SCRIB_1, Q14160): below the threshold; pKd (SNTA1, Q13424): 4.09; pKd (SNTG1, Q9NSN8): 3.83; pKd (TJP1_3, Q07157): below the threshold
